# Test results taken from patent US20240353401, “Compositions and methods for detecting SARS-CoV-2 spike protein” (UNICORNFISH PTY LTD AS TRUSTEE FOR RCX UNIT TRUST, published 2024).
# B1: DNA aptamer 4 (ssDNA)
# DNA: ATCCAGAGTGACGCAGCATTTCATCGGGTCCAAAAGGGGCTGCTCGGGATTGCGGATATGGACACGGTGGCTTAGT
# B2: DNA aptamer 8 (ssDNA)
# DNA: ATCCAGAGTGACGCAGCATTTCATCGGGTCCAAAAGGGGCTGCTCGGGATTGCGGATATGGACACGT
# B3: DNA aptamer 3 (ssDNA)
# DNA: ATCCAGAGTGACGCAGCACTGCGTAGGCGCGGCCAATGTGTAGGATTGCTCAGGTCTGCTGGACACGGTGGCTTAGT
# B4: DNA aptamer 6 (ssDNA)
# DNA: ATCCAGAGTGACGCAGCAGTAGGGGGATTGGCTCCAGGGCCTGGCTGACGGTTGCACGTGGACACGGTGGCTTAGT
# B5: DNA aptamer 2 (ssDNA)
# DNA: ATCCAGAGTGACGCAGCATCGAGTGGTGGGCTGGTCGGGTTTGGATTCCCTTAGATGCTGGACACGGTGGCTTAGT
# B6: DNA aptamer 5 (ssDNA)
# DNA: ATCCAGAGTGACGCAGCAGGACTGCTTAGGATTGCGAAGCTGAGGAGCTCCCCCGCCTTGGACACGGTGGCTTAGT
# B7: DNA aptamer 7 (ssDNA)
# DNA: CAGCACCGACCTTGTGCTTTGGGAGTGCTGGTCCAAGGGCGTTAATGGACA
# Key:
# SARS-CoV-2 spike protein = SARS-CoV-2 spike protein (SARS-CoV-2, UniProt P0DTC2 P0DTC2:14-1213); experiment: cell-based or functional assay
# HCoV-229E spike protein = HCoV-229E spike protein (Human coronavirus 229E, UniProt P15423 P15423:16-1115)
# Sequence of HCoV-229E spike protein (P15423 16-1115, one chain of several): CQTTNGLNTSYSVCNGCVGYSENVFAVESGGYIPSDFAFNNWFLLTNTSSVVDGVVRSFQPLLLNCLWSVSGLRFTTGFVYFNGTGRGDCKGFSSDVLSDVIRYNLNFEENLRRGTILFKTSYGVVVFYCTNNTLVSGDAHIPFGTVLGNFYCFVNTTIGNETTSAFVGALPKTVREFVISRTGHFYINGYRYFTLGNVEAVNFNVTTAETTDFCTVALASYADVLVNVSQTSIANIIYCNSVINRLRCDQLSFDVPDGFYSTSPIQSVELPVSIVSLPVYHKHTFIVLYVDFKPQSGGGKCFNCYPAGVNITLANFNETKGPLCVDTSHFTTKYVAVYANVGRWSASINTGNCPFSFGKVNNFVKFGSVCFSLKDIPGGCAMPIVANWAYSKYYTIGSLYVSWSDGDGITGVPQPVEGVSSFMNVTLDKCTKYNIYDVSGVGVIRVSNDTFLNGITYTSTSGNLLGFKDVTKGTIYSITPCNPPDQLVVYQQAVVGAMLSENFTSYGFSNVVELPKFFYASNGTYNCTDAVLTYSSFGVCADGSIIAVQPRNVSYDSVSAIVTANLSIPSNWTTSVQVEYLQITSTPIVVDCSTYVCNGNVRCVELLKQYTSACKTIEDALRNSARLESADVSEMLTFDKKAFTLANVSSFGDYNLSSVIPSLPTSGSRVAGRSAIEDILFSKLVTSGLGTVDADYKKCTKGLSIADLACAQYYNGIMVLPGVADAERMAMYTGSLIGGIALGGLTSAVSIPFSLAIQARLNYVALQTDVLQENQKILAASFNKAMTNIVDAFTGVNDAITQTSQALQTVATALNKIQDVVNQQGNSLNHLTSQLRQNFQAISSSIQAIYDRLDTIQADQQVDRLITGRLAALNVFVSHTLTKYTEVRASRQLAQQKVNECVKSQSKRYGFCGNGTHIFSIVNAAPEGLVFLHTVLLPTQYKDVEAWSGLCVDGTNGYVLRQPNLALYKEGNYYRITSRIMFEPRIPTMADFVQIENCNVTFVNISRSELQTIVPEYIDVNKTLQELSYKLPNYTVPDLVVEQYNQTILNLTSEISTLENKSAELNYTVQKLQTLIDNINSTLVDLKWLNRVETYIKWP
# HCoV-NL63 spike protein = HCoV-NL63 spike protein (Human coronavirus NL63, UniProt Q6Q1S2 Q6Q1S2:19-1296)
# Sequence of HCoV-NL63 spike protein (Q6Q1S2 19-1296, one chain of several): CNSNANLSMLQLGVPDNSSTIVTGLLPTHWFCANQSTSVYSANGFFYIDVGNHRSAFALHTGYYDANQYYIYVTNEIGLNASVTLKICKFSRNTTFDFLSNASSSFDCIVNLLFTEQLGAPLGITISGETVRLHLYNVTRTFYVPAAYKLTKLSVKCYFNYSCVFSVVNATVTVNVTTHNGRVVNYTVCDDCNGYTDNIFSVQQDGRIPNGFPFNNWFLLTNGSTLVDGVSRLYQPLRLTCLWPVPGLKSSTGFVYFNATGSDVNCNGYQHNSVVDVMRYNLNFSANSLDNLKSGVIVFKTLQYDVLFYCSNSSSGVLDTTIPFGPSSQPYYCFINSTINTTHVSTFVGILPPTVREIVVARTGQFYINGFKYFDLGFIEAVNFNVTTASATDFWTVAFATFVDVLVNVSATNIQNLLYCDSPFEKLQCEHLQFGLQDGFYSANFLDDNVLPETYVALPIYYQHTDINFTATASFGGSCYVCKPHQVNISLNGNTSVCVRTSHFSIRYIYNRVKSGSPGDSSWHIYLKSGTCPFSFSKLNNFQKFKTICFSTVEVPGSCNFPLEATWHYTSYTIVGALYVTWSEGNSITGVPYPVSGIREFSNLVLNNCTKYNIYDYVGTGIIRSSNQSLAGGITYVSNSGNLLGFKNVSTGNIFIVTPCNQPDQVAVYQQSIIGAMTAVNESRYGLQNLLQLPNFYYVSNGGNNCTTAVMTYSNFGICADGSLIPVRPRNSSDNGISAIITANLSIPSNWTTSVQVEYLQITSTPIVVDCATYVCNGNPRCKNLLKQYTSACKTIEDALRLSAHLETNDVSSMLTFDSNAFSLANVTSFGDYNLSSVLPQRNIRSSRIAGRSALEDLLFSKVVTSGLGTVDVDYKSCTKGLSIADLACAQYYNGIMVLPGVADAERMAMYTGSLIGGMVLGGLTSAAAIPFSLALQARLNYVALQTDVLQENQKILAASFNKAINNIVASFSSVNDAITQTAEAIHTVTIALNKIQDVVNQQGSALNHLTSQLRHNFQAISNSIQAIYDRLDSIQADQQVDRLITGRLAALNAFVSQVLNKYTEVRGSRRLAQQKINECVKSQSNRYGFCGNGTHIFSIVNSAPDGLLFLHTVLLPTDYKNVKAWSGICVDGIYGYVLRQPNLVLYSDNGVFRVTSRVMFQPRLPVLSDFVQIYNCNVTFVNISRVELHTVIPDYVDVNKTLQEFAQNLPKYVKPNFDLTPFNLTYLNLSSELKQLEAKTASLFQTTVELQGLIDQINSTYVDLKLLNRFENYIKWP
Binder,activity (SARS-CoV-2 spike protein) [nM],binding result (HCoV-229E spike protein),binding result (HCoV-NL63 spike protein)
B1,9,–,–
B2,8.9,–,–
B3,10,–,–
B4,7.8,–,–
B5,8,–,–
B6,9.7,–,–
B7,–,no binding,no binding
